Source: the RNAGym collection of RNA variant scans (doi:10.7554/elife.80360)

B1: HDV Ribozyme (parent)
chain: GGCCGGCAUGGUCCCAGCCUCCUCGCUGGCGCCGGCUGGGCAACAUUCCGAGGGGACCGUCCCCUCGGUAAUGGCGAAUGGGACCCA

Variants of: B1
Assay: self-cleavage, relative activity (ratio to wild type); higher = more cleavage; co-transcriptional
In the case of GGCCGGCAUGGUCCCAGCCUCCUCGCUGGCGCCGGCUGGGUAACAUUCCGAGGGGACCGUCGCCUCGGUAAUGGCGAAUGGGACCCA [C41U C62G], the self-cleavage is reported as 0.426. In the case of GGCCGGCAUUGUCCCAGCCUCCUCGCUGGCGCCGGCUGGGCAACAUUCCGAGGGGACCGUCCCCUCGGUAAUGGCGAAAGGGACCCA [G10U U79A], the self-cleavage is reported as 0.352. Work on GGCCGGCAUGGUCCCAGGCUCCUCGCUGGCGCCGGCUGGGCAACAUUCCGAGGGGACCGUCCCCUCGGUAAUGGCGAAUGGGACCCG [C18G A87G] yielded a self-cleavage of 0.12. Work on GGCCGGCAUGGUCCCAGCCUACUCGCUGGCGCCGGCUGGGCAACAUUCCGAGGGGACCGUCCCCUCGGUAAUAGCGAAUGGGACCCA [C21A G73A] yielded a self-cleavage of 0.161. UGGCGGCAUGGUCCCAGCCUCCUCGCUGGCGCCGGCUGGGCAACAUUCCGAGGGGACCGUCCCCUCGGUAAUGGCGAAUGGGACCCA [G1U C3G] gave a self-cleavage of 1.6. For GGCAGGCAUGGUCCCAGCCUCCUCGCUGGCGCCGGCUGUGCAACAUUCCGAGGGGACCGUCCCCUCGGUAAUGGCGAAUGGGACCCA [C4A G39U], the self-cleavage was 0.14. Work on GGCCGGCAUGUUCCCAGCCUCCUCGCUGGCACCGGCUGGGCAACAUUCCGAGGGGACCGUCCCCUCGGUAAUGGCGAAUGGGACCCA [G11U G31A] yielded a self-cleavage of 0.179. In the case of GGCCGGCAUGGUCCCAGCCUCCUCGCUGGCGCCGGCUGGGCAACAUUCUGAGGGGACCGUCCCCUCGGUAAUGGCGAAUGGGACCCU [C49U A87U], the self-cleavage is reported as 0.939. With AGCCGGCAUGGUCCCAGCCUCCUCGCUGGCGCCGGCUGGGCAACAUUCCGAGCGGACCGUCCCCUCGGUAAUGGCGAAUGGGACCCA [G1A G53C] the self-cleavage was 0. GGCCGGCAUGGUCCCCGCCUCCUCGCUGCCGCCGGCUGGGCAACAUUCCGAGGGGACCGUCCCCUCGGUAAUGGCGAAUGGGACCCA [A16C G29C] gave a self-cleavage of 0. Work on GGCCGGCAUGGUCCCAGCCUCCCCGCUGGCGCCGGCUGGGCAACAUUCCGUGGGGACCGUCCCCUCGGUAAUGGCGAAUGGGACCCA [U23C A51U] yielded a self-cleavage of 1.15. Work on GGCCGGCAUGGUCCCAGCCUCCUCGCUGGCGCCGGCUGGGCAACAUUCCGACGGGACCGUCCCCACGGUAAUGGCGAAUGGGACCCA [G52C U65A] yielded a self-cleavage of 0.939. With GGCCCGCAGGGUCCCAGCCUCCUCGCUGGCGCCGGCUGGGCAACAUUCCGAGGGGACCGUCCCCUCGGUAAUGGCGAAUGGGACCCA [G5C U9G] the self-cleavage was 0.111. Work on GGCCGGCAUGGUCCCAGCCUCCUCGCUGGCGCCGGCUGGGCAACAUUCCGAGGGGACAGUCCCCUCGGUAAUGACGAAUGGGACCCA [C58A G74A] yielded a self-cleavage of 0.426. Variant GGCCGGCAUGGUCCCAGCCUCCUCGCUGGCGCCGGCUGGGCAACAUUCCGAGGGGAACGUCGCCUCGGUAAUGGCGAAUGGGACCCA [C57A C62G] has a self-cleavage of 0.85. In the case of GGCCGGCAUGGUCCCAGCCUCCUCGCUGGCGCCGGCUGGGCAACAUUCCGACGGGACCGUCCCCUCGGUAAUGGCGAAUGGGACUCA [G52C C85U], the self-cleavage is reported as 1.09. Variant GGCCGGCAUGGUCCCAGCCUCCUCACUGGCGCCGGCCGGGCAACAUUCCGAGGGGACCGUCCCCUCGGUAAUGGCGAAUGGGACCCA [G25A U37C] has a self-cleavage of 0.141. GGCCGGCAUAGUCCCAGCCUCCUCGCUGGCGCCGGCUGGGCAACAUUCCGAGGGGACCGUCCCCUCGGUAAUGGCCAAUGGGACCCA [G10A G76C] gave a self-cleavage of 0.772. GGCCGGCAUGGUCCCAGCCUCCUCGCUGGCGCCGGCUGGGAAACAUUCCGAGGGGACCGUCCCCUAGGUAAUGGCGAAUGGGACCCA [C41A C66A] gave a self-cleavage of 0.804. In the case of GGCCGGCAUGGUCGCAGCCUCCUCGCUGGCGCCGGCUGGGCAACAUUCCGAGGGGACCGUCCCCUCGGUAAUGGCGAAUGGGAGCCA [C14G C84G], the self-cleavage is reported as 0.128. With GGCCGGCAUGGUCCCAGCCUCCUCGCUGGCGCCGGCUGGGCAACAUUCAGAGGGGACCGUCCCCUCGGUAAUGGCGAAUGGAACCCA [C49A G82A] the self-cleavage was 0.104. Work on GGCCGGCAUGGUCCCCGCCUCCUCGCUGGCGCCGGCUGGGCAACAUUCCGAGGGGACCCUCCCCUCGGUAAUGGCGAAUGGGACCCA [A16C G59C] yielded a self-cleavage of 0.974. With GGCCGGUAUGGUCCCAGCCUCCUCGCUGGCGCCGGCUGGGCAACAUUCUGAGGGGACCGUCCCCUCGGUAAUGGCGAAUGGGACCCA [C7U C49U] the self-cleavage was 0.727. In the case of GGCCGGCAUGGUCCCAGCCUCCUCGCUGGCGCCGGCUGGGCAACAUUCCGAGGGGACCGUCCCCUCGGCACUGGCGAAUGGGACCCA [U69C A71C], the self-cleavage is reported as 0.475. GGCCGGCAUGGUCACAGCCUCCUCGCUGGCGCCGGCUGGGCAACAUUCCGAGGGGACGGUCCCCUCGGUAAUGGCGAAUGGGACCCA [C14A C58G] gave a self-cleavage of 0.762. With GGCCGGCAAGGUCCCAGCCUCCUCGCUAGCGCCGGCUGGGCAACAUUCCGAGGGGACCGUCCCCUCGGUAAUGGCGAAUGGGACCCA [U9A G28A] the self-cleavage was 0.138. In the case of GGCCGGCGUGGUCCCAGCCUCCUCGCUGGCGCCGGCUAGGCAACAUUCCGAGGGGACCGUCCCCUCGGUAAUGGCGAAUGGGACCCA [A8G G38A], the self-cleavage is reported as 0.0959. In the case of GGCCGGCAUGUUCCCAGCCUCCUCGCUGGCGCCGGCUGGGCAACAUUCCGAGGGGACCGUCCCGUCGGUAAUGGCGAAUGGGACCCA [G11U C64G], the self-cleavage is reported as 0.465. In the case of GGCCGGCAUGGUCCCAGCCUCCUCGCUGGCGCCGGCUGGGCAAUAUUCCGAGGGGACCGUCCCCUCUGUAAUGGCGAAUGGGACCCA [C44U G67U], the self-cleavage is reported as 0.499. Work on GGCCGGCAUGGUCCCAGCCUCCUCGCUGGCGCCGGCUGGGCAACAUACCGAGGGGACCUUCCCCUCGGUAAUGGCGAAUGGGACCCA [U47A G59U] yielded a self-cleavage of 0.933. For GGCCGGCAUGGUCCCAGCCUCCUCGCUGGCGCCGGCUGGGCAACAUUCCGAGGGGACCGUCCCCUCGGUAAUGGCGAAUGGGACCAA [C86A], the self-cleavage was 0.926. In the case of GGCCGGCAUGGUCCCAGCCUCCUCGCUGGCGCCGGCUGGGCAACAUUCCGAGGGGACCGUCCCAUCGGAAAUGGCGAAUGGGACCCA [C64A U69A], the self-cleavage is reported as 1.06.
